Reference: publication PMC10652106, “Crosstalk between the tRNA methyltransferase Trm1 and RNA chaperone La influences eukaryotic tRNA maturation”
Residue numbers refer to the chain shown, from its start.

How the values were obtained:
[1] = target: T1, Trm1 M24 D201A (catalytic-dead) (Schizosaccharomyces pombe, UniProt Q9P804 24-548, D201A); assay: EMSA; affinity comparable to WT; Kd values not in material; no SAM listed; EMSA: 20 mM Tris-HCl pH 7.6, 100 mM KCl, 0.2 mM EDTA, 1 mM DTT; 32 °C 20 min, ice 2 min; 8% native gel at 4 °C; conditions: protein: recombinant; label: 32P (alpha-ATP, internal); tRNA fold, single strand
T1 sequence: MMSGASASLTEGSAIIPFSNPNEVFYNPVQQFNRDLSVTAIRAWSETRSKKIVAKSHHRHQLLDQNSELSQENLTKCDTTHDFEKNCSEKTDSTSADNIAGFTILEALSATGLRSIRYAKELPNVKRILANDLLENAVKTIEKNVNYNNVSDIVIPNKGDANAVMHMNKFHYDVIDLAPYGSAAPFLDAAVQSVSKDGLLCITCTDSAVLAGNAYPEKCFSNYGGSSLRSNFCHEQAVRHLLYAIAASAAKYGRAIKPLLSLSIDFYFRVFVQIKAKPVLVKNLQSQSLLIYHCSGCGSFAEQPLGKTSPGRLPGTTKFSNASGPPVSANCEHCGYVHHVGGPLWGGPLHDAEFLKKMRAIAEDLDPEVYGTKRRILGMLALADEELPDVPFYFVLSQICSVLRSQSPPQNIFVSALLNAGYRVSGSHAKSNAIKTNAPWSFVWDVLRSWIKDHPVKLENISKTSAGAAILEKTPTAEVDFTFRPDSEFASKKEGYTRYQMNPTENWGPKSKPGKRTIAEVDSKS

[2] = target: T2, Trm1 M24 (nuclear isoform, WT) (Schizosaccharomyces pombe, UniProt Q9P804 24-548); assay: EMSA; replicate 1 of 3; Hill coefficient 7.061; no SAM listed; EMSA: 20 mM Tris-HCl pH 7.6, 100 mM KCl, 0.2 mM EDTA, 1 mM DTT; 32 °C 20 min, ice 2 min; 8% native gel at 4 °C; conditions: protein: recombinant; label: 32P (alpha-ATP, internal); tRNA fold, single strand
T2 sequence: T1 sequence with A178D

B1: pre-tRNA SerUGA (structured_RNA)
RNA: GUCACUAUGUCCGAGUGGUUAAGGAGUUAGACUUGAAUCCUGUCUAGUCAUCUAAUGGGCUUUGCCCGCGCAGGUUCAAAUCCUGCUGGUGACGGUAUUU
In the case of B1, the binding result [1] is reported as “binds” and the Kd [2] is reported as 576 nM.
